According to US20090118184A1 (UNIVERSITY OF ROCHESTER, published 2009):
Substitutions are numbered along the chain they refer to.

Tests used:
Assay in all cases: cell-based or functional assay
[1] = biological target: T1, factor VIIIa A1/A3C1C2 dimer, wild type (human, UniProt P00451 20-391; P00451 1709-2351)
T1 sequence 1: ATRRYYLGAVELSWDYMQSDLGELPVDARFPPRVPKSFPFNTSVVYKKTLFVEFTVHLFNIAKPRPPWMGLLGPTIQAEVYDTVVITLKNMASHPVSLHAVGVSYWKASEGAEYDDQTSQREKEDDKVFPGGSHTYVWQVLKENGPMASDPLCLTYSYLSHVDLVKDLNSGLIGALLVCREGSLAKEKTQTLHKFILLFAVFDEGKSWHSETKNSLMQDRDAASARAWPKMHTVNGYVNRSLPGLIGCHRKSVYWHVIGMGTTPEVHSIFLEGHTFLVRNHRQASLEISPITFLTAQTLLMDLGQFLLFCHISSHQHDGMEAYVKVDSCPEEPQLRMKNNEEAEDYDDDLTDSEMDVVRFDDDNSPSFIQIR
T1 sequence 2: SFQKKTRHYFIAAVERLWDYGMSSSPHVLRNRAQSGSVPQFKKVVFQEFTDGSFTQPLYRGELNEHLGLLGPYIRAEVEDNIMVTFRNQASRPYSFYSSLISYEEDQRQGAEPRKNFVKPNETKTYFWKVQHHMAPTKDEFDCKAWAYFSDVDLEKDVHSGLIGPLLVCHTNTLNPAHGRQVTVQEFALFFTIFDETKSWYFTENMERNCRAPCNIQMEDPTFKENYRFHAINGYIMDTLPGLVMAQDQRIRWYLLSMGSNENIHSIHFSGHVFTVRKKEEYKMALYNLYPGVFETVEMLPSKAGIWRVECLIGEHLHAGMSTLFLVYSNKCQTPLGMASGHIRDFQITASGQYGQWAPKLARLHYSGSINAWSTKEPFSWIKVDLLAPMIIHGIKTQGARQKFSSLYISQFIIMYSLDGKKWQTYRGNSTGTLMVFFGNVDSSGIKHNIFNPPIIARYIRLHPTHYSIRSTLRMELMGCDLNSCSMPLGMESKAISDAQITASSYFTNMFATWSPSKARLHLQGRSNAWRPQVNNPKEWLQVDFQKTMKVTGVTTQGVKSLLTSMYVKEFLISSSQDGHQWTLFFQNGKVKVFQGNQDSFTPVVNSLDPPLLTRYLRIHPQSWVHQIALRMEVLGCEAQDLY

[2] = biological target: T2, factor VIIIa A1/A3C1C2 dimer, Glu1984Ala (human, UniProt P00451 20-391; P00451 1709-2351)
T2 sequence 1: T1 sequence 1
T2 sequence 2: T1 sequence 2 with E295A

[3] = biological target: T3, factor VIIIa A1/A3C1C2 dimer, E1829A (human, UniProt P00451 20-391; P00451 1709-2351)
T3 sequence 1: T1 sequence 1
T3 sequence 2: T1 sequence 2 with E140A

- Decay rate relative to wild type, Factor VIIIa (1.5 nM, factor IXa absent) [1]: 1 relative to wild type
- Decay rate, Factor VIIIa (1.5 nM factor VIIIa, factor IXa absent) [1]: 0.14 min⁻¹
- Decay rate relative to wild type, Factor VIIIa (1.5 nM, factor IXa absent) [2]: 0.41 relative to wild type
- Decay rate, Factor VIIIa (1.5 nM factor VIIIa, factor IXa absent) [2]: 0.0574 min⁻¹
- rate of factor VIIIa decay compared with WT, factor IXa present [3]: 5 fold
B1: factor VIIIa A2 subunit, wild type (other)
chain: SVAKKHPKTWVHYIAAEEEDWDYAPLVLAPDDRSYKSQYLNNGPQRIGRKYKKVRFMAYTDETFKTREAIQHESGILGPLLYGEVGDTLLIIFKNQASRPYNIYPHGITDVRPLYSRRLPKGVKHLKDFPILPGEIFKYKWTVTVEDGPTKSDPRCLTRYYSSFVNMERDLASGLIGPLLICYKESVDQRGNQIMSDKRNVILFSVFDENRSWYLTENIQRFLPNPAGVQLEDPEFQASNIMHSINGYVFDSLQLSVCLHEVAYWYILSIGAQTDFLSVFFSGYTFKHKMVYEDTLTLFPFSGETVFMSMENPGLWILGCHNSDFRNRGMTALLKVSSCDKNTGDYYEDSYEDISAYLLSKNNAIEPR
